Columns and labels:
[1] = biological target: Schizosaccharomyces pombe P-factor pheromone receptor (Mam2) (Schizosaccharomyces pombe) (UniProt Q00619); assay: cell-based or functional assay
[2] = biological target: Aga2-HA-PAS40-(G4S)3-CD19-myc yeast surface display fusion protein (CD19.1 ECD displayed on SCASA yeast aAPCs) (synthetic construct, CD19 part modified from human); assay: cell-based or functional assay
[3] = biological target: CD19 on the human CD19+ NALM6 B cell precursor leukemia cell line (human) (UniProt P15391); assay: cell-based or functional assay
[4] = system: pheromone response pathway (PRP)
Method: To investigate the dose-response features of the selected promoters PMFA2, PFUS1, PAGA2, PFIG.1, PMFA1, PYCL076W, PHPF1, PIME4, PCSS1, PTDH3, PPGK1 and P6XLexOLEU2 upon GPCR stimulation the strains were pre-grown in SC (24 hrs.), whereafter, for each replicate, cells were transferred to 200 μL volumes comprising a 10-fold dilution series of α-factor (0-100 μM) (GenScript) dissolved in SC+1% DMSO, and stimulated for 5 hrs. (30° C., 250 r.p.m.). Flow cytometric measurement was done to quantify yEGFP levels (B525/45-A) and PRP-regulated morphological changes, denoted shmooing (SSC-A) using a NovoCyte Quanteon flow cytometer (Agilent). Data represents means of median fluorescence intensity (mMFI) for three biological replicates and standard deviations hereof. Two-way ANOVA with Tukey's multiple comparisons test was conducted for all conditions.

CD19 = assay: Yeast surface display (YSD) of CD19, antibody staining and flow cytometry; format: cell-based, Saccharomyces cerevisiae
Method: To investigate the different variants of CD19 modules, yeast cells were grown and, in some cases, stimulated to present CD19 differentially, whereafter they were stained with antibodies and assessed by flow cytometry. Flow cytometric measurement was done using a NovoCyte Quanteon flow cytometer (Agilent) to quantify CD19 by staining with mouse anti-CD19 (FMC63) (Absolute Antibody; Ab00613) and goat anti-mouse-AF647 (polyclonal) (Thermo Fisher; A-21236), detected in R667/30-H, as well as rabbit anti-HA (RM305) (Thermo Fisher; MA5-27915) and goat anti-rabbit-AF488 (polyclonal) (Thermo Fisher; A-11008), detected in B525/45-H (see FIG. 7), and to measure PRP-regulated morphological changes (SSC-H). […] Data represents means of median fluorescence intensity (mMFI) for three biological replicates and standard deviations hereof. Two-way ANOVA with multiple comparisons tests was conducted for all conditions. Histograms are representative replicates. No SSC-normalization was used in the evaluation of the effector module, unlike in Example 1, as it is the absolute response of all effects combined that constitute the total output that CAR T cells interpret and react to.
For conventional YSD using strain EBY100 and pCT-plasmid-based expression (Chao et al. 2006, Isolating and engineering human antibodies using yeast surface display. Nature Protocols, 1(2), 755-768), strains were pre-grown in SC −trp, then transferred to 5 mL SC −trp +2% Gal for induction of YSD or +2% Gluc as a negative control (24 hrs., 30° C., 250 r.p.m.). NALM6 was cultured in RPMI 1640 medium (ATCC modification) (Thermo Fisher) with 10% fetal bovine serum and 1% pen-strep (RPMI+10% FBS) at 37° C. with 5% CO2. For the investigation of PGAL1-titratability of DIX41 with pMAD58 and DIX74, strains were pre-grown in SC −ura and SC, respectively, then transferred to SC −ura and SC, respectively, with varying concentrations of galactose (0.0002%-2% Gal), using raffinose as compensating carbon source, and YSD was induced for 24 hrs. (30° C., 250 r.p.m.). Strains were similarly grown in 2% Gluc as negative controls. For the investigation of the strain library with constitutive and dynamically regulated expression of CD19 (Background strain/No YSD, PPGK1-Empty, PMFA2-CD19, PFUS1-CD19, PFIG.1-CD19, PMFA1-CD19, PHPF1-CD19, PTDH3-CD19, PPGK1-CD19) the strains were pre-grown in SC, whereafter, for each replicate, 50.000 cells were transferred to 300 μL volumes comprising a 10-fold dilution series of α-factor (0-100 μM) (GenScript) dissolved in SC+1% DMSO, and stimulated for 20 hrs. (30° C., 250 r.p.m.).

UniProt P15391, sequence (P15391 20-556): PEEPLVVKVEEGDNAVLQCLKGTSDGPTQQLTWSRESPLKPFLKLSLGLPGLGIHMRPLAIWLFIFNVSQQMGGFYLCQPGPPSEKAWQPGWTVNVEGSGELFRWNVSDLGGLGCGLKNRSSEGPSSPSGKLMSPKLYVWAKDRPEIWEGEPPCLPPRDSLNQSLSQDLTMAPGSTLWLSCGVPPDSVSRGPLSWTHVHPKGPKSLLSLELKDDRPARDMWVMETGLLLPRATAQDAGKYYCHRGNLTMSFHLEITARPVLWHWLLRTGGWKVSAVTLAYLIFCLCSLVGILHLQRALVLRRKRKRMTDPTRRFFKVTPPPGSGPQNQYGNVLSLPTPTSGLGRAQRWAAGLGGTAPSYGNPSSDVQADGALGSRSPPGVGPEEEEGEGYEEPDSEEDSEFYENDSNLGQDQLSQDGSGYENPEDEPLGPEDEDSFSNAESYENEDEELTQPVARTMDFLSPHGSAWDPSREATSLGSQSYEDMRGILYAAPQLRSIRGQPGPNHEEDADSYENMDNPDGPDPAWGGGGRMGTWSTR
UniProt Q00619, sequence (Q00619 other isoform, or with tags, fused parts or gaps): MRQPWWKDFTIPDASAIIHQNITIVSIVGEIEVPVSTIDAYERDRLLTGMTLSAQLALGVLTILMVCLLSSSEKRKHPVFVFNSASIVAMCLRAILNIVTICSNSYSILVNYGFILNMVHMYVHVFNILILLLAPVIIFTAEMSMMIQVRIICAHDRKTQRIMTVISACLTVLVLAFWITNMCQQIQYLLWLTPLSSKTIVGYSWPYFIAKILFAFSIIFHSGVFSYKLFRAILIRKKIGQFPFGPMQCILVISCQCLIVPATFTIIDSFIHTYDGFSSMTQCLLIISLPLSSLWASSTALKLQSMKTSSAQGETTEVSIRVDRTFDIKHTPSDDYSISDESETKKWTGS

**Q.** With P-factor (GenScript) (peptide) as the molecule, how does the fold change of CD19 expression (PFUS1 cassette, anti-HA staining), strain DIX60, pH=5, 0-10 µM P-factor [1] read?
**A.** The fold change of CD19 expression (PFUS1 cassette, anti-HA staining), strain DIX60, pH=5, 0-10 µM P-factor was 249 fold.

**Q.** “anti-CD19 CAR (FMC63-CD8α-4-1BB-CD3ζ) (receptor)” was tested. Which fold specific activation of CAR+ Jurkat NFAT-Luc cells, yeast PFUS1-CD19 at 0.01 µM α-factor [2] did it give?
**A.** The fold specific activation of CAR+ Jurkat NFAT-Luc cells, yeast PFUS1-CD19 at 0.01 µM α-factor was 3.2 fold.

**Q.** What about the fold specific activation of CAR+ Jurkat NFAT-Luc cells, yeast PTDH3-CD19 at 0.001 µM α-factor [2] of the same molecule?
**A.** Its fold specific activation of CAR+ Jurkat NFAT-Luc cells, yeast PTDH3-CD19 at 0.001 µM α-factor is 27.7 fold.

**Q.** What about the increase of CAR+ Jurkat NFAT-Luc activation relative to the uninduced condition, yeast PTDH3-CD19 at 0.1 µM α-factor [2] of the same molecule?
**A.** The increase of CAR+ Jurkat NFAT-Luc activation relative to the uninduced condition, yeast PTDH3-CD19 at 0.1 µM α-factor was 10.3 fold.

**Q.** And the increase of CAR+ Jurkat NFAT-Luc specific activation relative to the unstimulated condition, yeast PMFA2-CD19 at 0.01 µM α-factor [2]?
**A.** The increase of CAR+ Jurkat NFAT-Luc specific activation relative to the unstimulated condition, yeast PMFA2-CD19 at 0.01 µM α-factor was 15.3 fold.

**Q.** And the increase of CAR+ Jurkat NFAT-Luc specific activation relative to the unstimulated condition, yeast PMFA2-CD19 at 0.1 µM α-factor [2]?
**A.** Its increase of CAR+ Jurkat NFAT-Luc specific activation relative to the unstimulated condition, yeast PMFA2-CD19 at 0.1 µM α-factor is 14.5 fold.

**Q.** What about the increase of CAR+ Jurkat NFAT-Luc specific activation relative to the unstimulated condition, yeast PMFA2-CD19 at 1 µM α-factor [2] of the same molecule?
**A.** Its increase of CAR+ Jurkat NFAT-Luc specific activation relative to the unstimulated condition, yeast PMFA2-CD19 at 1 µM α-factor is 13.6 fold.

**Q.** And the increase of CAR+ Jurkat NFAT-Luc specific activation relative to the unstimulated state, yeast PFUS1-CD19 at 1 µM α-factor [2]?
**A.** The increase of CAR+ Jurkat NFAT-Luc specific activation relative to the unstimulated state, yeast PFUS1-CD19 at 1 µM α-factor was 3.1 fold.

**Q.** And the maximal fold specific activation of Jurkat NFAT-Luc cells without GPCR stimulation, yeast PMFA2-CD19, 90% CAR+ [2]?
**A.** The maximal fold specific activation of Jurkat NFAT-Luc cells without GPCR stimulation, yeast PMFA2-CD19, 90% CAR+ was 5.5 fold.

**Q.** And the maximal fold specific activation of Jurkat NFAT-Luc cells without GPCR stimulation, yeast PPGK1-CD19, 100% CAR+ [2]?
**A.** The maximal fold specific activation of Jurkat NFAT-Luc cells without GPCR stimulation, yeast PPGK1-CD19, 100% CAR+ was 11.5 fold.

**Q.** And the maximal fold specific activation of Jurkat NFAT-Luc cells without GPCR stimulation, yeast PTDH3-CD19, 70% CAR+ [2]?
**A.** Its maximal fold specific activation of Jurkat NFAT-Luc cells without GPCR stimulation, yeast PTDH3-CD19, 70% CAR+ is 12.8 fold.

**Q.** What about the maximal specific activation of 100% CAR+ Jurkat NFAT-Luc cells (luciferase), yeast PFUS1-CD19 pre-stimulated with 1 µM α-factor [2] of the same molecule?
**A.** Its maximal specific activation of 100% CAR+ Jurkat NFAT-Luc cells (luciferase), yeast PFUS1-CD19 pre-stimulated with 1 µM α-factor is 4.1 fold.

**Q.** And the maximal specific activation of 100% CAR+ Jurkat NFAT-Luc cells (luciferase), yeast PMFA2-CD19 pre-stimulated with 0.01 µM α-factor [2]?
**A.** The maximal specific activation of 100% CAR+ Jurkat NFAT-Luc cells (luciferase), yeast PMFA2-CD19 pre-stimulated with 0.01 µM α-factor was 22.3 fold.

**Q.** What about the maximal specific activation of 100% CAR+ Jurkat NFAT-Luc cells (luciferase), yeast PTDH3-CD19 pre-stimulated with 0.1 µM α-factor [2] of the same molecule?
**A.** Its maximal specific activation of 100% CAR+ Jurkat NFAT-Luc cells (luciferase), yeast PTDH3-CD19 pre-stimulated with 0.1 µM α-factor is 61.9 fold.

**Q.** And the maximal specific activation of CAR+ Jurkat NFAT-Luc cells by yeast PTDH3-CD19 relative to NALM6 [2]?
**A.** The maximal specific activation of CAR+ Jurkat NFAT-Luc cells by yeast PTDH3-CD19 relative to NALM6 was 2.2 fold.

**Q.** What about the maximal specific activation by NALM6 relative to any SCASA yeast aAPC without GPCR stimulation [3] of the same molecule?
**A.** The maximal specific activation by NALM6 relative to any SCASA yeast aAPC without GPCR stimulation was 2.2 fold.

**Q.** And the peaking activation intensity of Jurkat NFAT-Luc cells co-cultured with NALM6, 90% CAR+ [3]?
**A.** Its peaking activation intensity of Jurkat NFAT-Luc cells co-cultured with NALM6, 90% CAR+ is 28.1 fold.

B1: PFIG.1: pheromone-responsive Saccharomyces cerevisiae promoter, SEQ ID NO: 9, processing module (yEGFP strain DIX25, CD19 strain DIX56) (nucleic acid, listed as Saccharomyces cerevisiae)
DNA: TTGAATGATCAACCAAACGCCGATATAGTCACTATTGGTGATAAAATTAAAATGCAGCTATTGAGAACCCATCCTAACAACATTAAATTGTCTATTAATGGAATTGGTAAAGATGCCCCAACTTTCCAAGAATCTGCTTTGATTGCCGATAAGTTATTGAGTGTCATGAAGGCCGGCACTTACCCAAAGATTTCCATTTTCTACAATGACCCAGTGTCTTCCCTATCTTTTGAACCATCTGAAAAACCGATCTTTAACGCCAAGACCATTGAACAATCCCCATCATTCGGCAAATTTGAGATCGACACGGACGCAAACGTTCCAAGAGATTTGTTTGAATATACTTTGGCTAACCAAATGTTGACAGCAATGGCTCAAGGTTATGCTGCTGAAATTTCCGCCAGAAGAAACGCTATGGATAACGCTTCCAAGAATGCCGGTGATATGATCAATCGTTACTCTATCTTGTACAACAGAACAAGACAAGCTGTCATTACTAATGAACTGGTTGATATTATTACTGGTGCTTCCTCTTTGGGATGATAAAAAAATCACCCTGCATTGCCTCTTTATTTGACGTTGTTTTTGTAGAACATGAAACGAATTTTGACTTGATGAGACGAAGTATATATCCAAAGAATACCTTAAATAGAAAAGGAAAGATAATAAATACTAAACACTACTATATATTCAGGTAAAATACAAAAATTATAACATTTTTAAAACTTTTTTTTTTTGAAAGTCCTTCTCGCTTTAGGATTTTTTCCCATTAAGATTATGATGGTTTCATGTATGTGTCAGTTAAAAAAAATATGGCTAAGTAGCAATGAAACGAACCAAGAAAATGAAAACAATATATAGTGCTGTTGAAATAACAAAGACATTGGTATATATTTGTAAAATGTCTGTTAAATGTTTTTTATCTCAGGTTCTTGCTTGTCTTTGGTAGAAGAAATTATAGTAAACAAACAAACAAACAAACAAAAAAAAAAAAAAAAAA
**Q.** For B1, which “maximum fold change of yEGFP, unnormalized” value ([4]; 1 μM α-factor (peak)) is on record?
**A.** Its value is 516.8±83.0 fold.

**Q.** And the “fold change of yEGFP, unnormalized” value ([4]; 100 μM α-factor)?
**A.** The value was 482.6±98.5 fold.

**Q.** What about the “maximum fold change of yEGFP, SSC-normalized” value ([4]; 100 μM α-factor (peak)) of the same molecule?
**A.** Its value is 128.8±7.2 fold.

**Q.** What about the “fold change of induction of yEGFP, SSC-normalized” value ([4]; α-factor 0-100 μM, 5 hrs, excluding PRP-induced expression boost) of the same molecule?
**A.** The value was 128.81±7.17 fold.

**Q.** What about the “CD19 level at unstimulated conditions” value (CD19; no GPCR stimulation) of the same molecule?
**A.** Its value is “extremely low levels of CD19 at the limit of detection”.

**Q.** What about the “fold upregulation of CD19 display relative to unstimulated condition” value (CD19; α-factor 0-100 μM, 20 hrs, promoter driving CD19 in DIX41 background) of the same molecule?
**A.** Its value is 629.6±98.6 fold.
